Assay [1] deals with T1, human ferroportin (SLC40A1) fused in frame with GFP (human) (UniProt Q9NP59).
T1 sequence (looked up): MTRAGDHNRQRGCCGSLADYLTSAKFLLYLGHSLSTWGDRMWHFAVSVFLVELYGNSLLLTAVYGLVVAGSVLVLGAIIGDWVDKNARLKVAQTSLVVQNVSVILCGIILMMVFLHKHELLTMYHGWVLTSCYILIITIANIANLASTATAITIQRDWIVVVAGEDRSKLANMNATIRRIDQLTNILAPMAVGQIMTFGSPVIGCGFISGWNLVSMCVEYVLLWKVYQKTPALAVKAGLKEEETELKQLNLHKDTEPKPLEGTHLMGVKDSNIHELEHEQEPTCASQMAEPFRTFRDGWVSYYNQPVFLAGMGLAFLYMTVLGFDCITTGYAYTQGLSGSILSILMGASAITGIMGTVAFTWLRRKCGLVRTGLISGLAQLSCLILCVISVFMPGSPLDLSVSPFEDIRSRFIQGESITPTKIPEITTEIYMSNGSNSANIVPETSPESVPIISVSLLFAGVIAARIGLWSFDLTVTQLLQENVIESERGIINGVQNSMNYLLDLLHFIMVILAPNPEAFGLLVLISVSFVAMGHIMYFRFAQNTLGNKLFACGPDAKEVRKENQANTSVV
Kind of assay: cell-based or functional assay.

The target in assay [2] is T2, human ferroportin (SLC40A1) fused in frame with GFP (human, UniProt Q9NP59 1-571).
T2 sequence (looked up): T1 sequence (looked up)
Kind of assay: cell-based or functional assay.

Starred links: 1 amine or outer side, 2 acyl side, 3 side chain; linkers in the order of their positions; H or OH if unused. Positions of bridges follow the written chain, without caps; N, C: chain ends. Non-standard residues stand in square brackets, D forms with d. Groups on a side chain read outwards from the residue. Chains are numbered I, II in the order given. No end group written: not given here. *: point of attachment. PEG12 = NCCOCCOCCOCCOCCOCCOCCOCCOCCOCCOCCOCCOCCC(=O)O; Phe(4-tBu) = CC(C)(C)c1ccc(C[C@H](N)C(=O)O)cc1; Phe(3,4-F2) = N[C@@H](Cc1ccc(F)c(F)c1)C(=O)O; Dip = N[C@H](C(=O)O)C(c1ccccc1)c1ccccc1; γGlu = O=C(O)[C@H](CCC(=O)[*:2])N[*:1]; Palmitoyl = CCCCCCCCCCCCCCCC(=O)*; 2Pal = N[C@@H](Cc1ccccn1)C(=O)O; β3hF = N[C@H](CC(=O)O)Cc1ccccc1; NMeL = CN[C@@H](CC(C)C)C(=O)O; Isovaleryl = CC(C)CC(=O)*; Dap = NC[C@H](N)C(=O)O; Npc = nipecotic acid; Ahx = NCCCCCC(=O)O; βAla = NCCC(=O)O; Sar = CNCC(=O)O

These results are taken from patent publication US20240018189A1 (PROTAGONIST THERAPEUTICS, published 2024).

As to DTHXPCIKXKC (N-term isovaleric acid; 4 Dpa; 8 (D)Lys(Ac); 9 bhPhe; 10 Lys(Ac); C-term NH2) [Seq. No. 325], in assay [1], the IC50: FPN internalisation was 37.8 nM. In assay [1], Isovaleryl-DTH[Dip][Npc]CI[dK][β3hF]K([Ahx-Palmitoyl])[dK]C-NH2 (disulfide 6-12 (inferred)) [Compd. ID 4] yielded an FPN EC50 of 6.35 nM.

For Isovaleryl-DTH[Dip][Npc]CI[dK][Phe(3,4-F2)]K([PEG12-Palmitoyl])KC-NH2 (disulfide 6-12 (inferred)) [Seq. No. 346], in assay [1], the IC50: FPN internalisation amounted to 6.16 nM.

B1: Compd. ID 42 (peptide)
peptide: DTHXPCIKXKKC
modifications: N-term isovaleric acid; 4 Dpa; 8 (D)Lys; 9 bhPhe; 10 Lys(1Peg2_1Peg2_IsoGlu_C18_Diacid); 11 (D)Lys; C-term NH2
In the case of B1, the FPN EC50 in assay [1] worked out at 1700 nM.

B2: Compd. ID 8 (peptide)
peptide: DTHXPCIKXKC
modifications: N-term isovaleric acid; 4 Dpa; 8 Lys[Ahx-Behenic_Acid]; 9 bhPhe; 10 (D)Lys; C-term NH2
Take B2: the FPN EC50 in assay [1] was 550 nM. In turn, DTHXPCIKXKC (N-term isovaleric acid; 4 Dpa; 8 Lys(Ahx_Palm); 9 2Pal; 10 (D)Lys; C-term NH2) [Seq. No. 321] registered an IC50: FPN internalisation in assay [1] of 21.7 nM. In turn, Isovaleryl-DTH[Dip]PCI[β3hF]K([Ahx-Palmitoyl])[dK]C-NH2 (disulfide 6-11 (inferred)) [Compd. ID 206] gave an FPN EC50 in assay [1] of 10.8 nM. Molecule Isovaleryl-DTH[Dip][Npc]CI[dK][Phe(4-tBu)][dK]CK([PEG12-Palmitoyl])-NH2 (disulfide 6-11 (inferred)) [Seq. No. 328] returned an IC50: FPN internalisation in assay [1] of 16.5 nM.

On to DTHXPCIKFKXC (N-term isovaleric acid; 4 Dpa; 8 (D)Lys; 10 Lys(PEG12 Palm); 11 Dab; C-term NH2) [Seq. No. 339], for which, in assay [1], the IC50: FPN internalisation was found to be 22.8 nM. In assay [1], Isovaleryl-DTHFPCI[dK]FK([PEG12-Palmitoyl])CK-NH2 (disulfide 6-11 (inferred)) [Seq. No. 334] had an IC50: FPN internalisation of 32 nM.

B3: Seq. No. 344 (peptide)
peptide: DTHXPCIKFKKX
modifications: N-term isovaleric acid; 4 Dpa; 8 (D)Lys; 10 Lys(PEG12_Palm); 11 (D)Lys; 12 Pen; C-term NH2
B3: the IC50: FPN internalisation in assay [1] came to 7.75 nM.

B4: Seq. No. 345 (peptide)
peptide: DTHXPCIKXKKC
modifications: N-term isovaleric acid; 4 Dpa; 8 (D)Lys; 9 Dpa; 10 Lys(PEG12_Palm); 11 (D)Lys; C-term NH2
In assay [1], B4 showed an IC50: FPN internalisation of 23 nM. As to DTHFPCIKXKKC (N-term isovaleric acid; 8 (D)Lys; 9 bhPhe; 10 Lys(Palm); C-term NH2) [Compd. ID 205], the FPN EC50 in assay [1] stood at 4.23 nM.

B5: Compd. ID 41 (peptide)
peptide: DTHXPCIKXKKC
modifications: N-term isovaleric acid; 4 Dpa; 8 (D)Lys; 9 bhPhe; 10 Lys(2Peg11′_Peg11_Palm); 11 (D)Lys; C-term NH2
With B5, in assay [1], the FPN EC50 amounted to 18.5 nM. Turning to Isovaleryl-DTH[Dip]PCI[β3hF][dK]C-NH2 (disulfide 6-10 (inferred)) [Seq. No. 324], the IC50: FPN internalisation in assay [1] was 23.3 nM. The molecule Isovaleryl-DTH[Dip]PCI[dA][β3hF]K([PEG12-Palmitoyl])[dK]C-NH2 (disulfide 6-12 (inferred)) [Seq. No. 332] gave an IC50: FPN internalisation in assay [1] of 11 nM.

B6: Compd. ID 38 (peptide)
peptide: DTHXPCIKXKKC
modifications: N-term isovaleric acid; 4 Dpa; 8 (D)Lys; 9 bhPhe; 10 Lys(Lys[Peg11_Palm]2); 11 (D)Lys; C-term NH2
In assay [1], B6 yielded an FPN EC50 of 33 nM.

B7: Compd. ID 39 (peptide)
peptide: DTHXPCIKXKKC
modifications: N-term isovaleric acid; 4 Dpa; 8 (D)Lys; 9 bhPhe; 10 Lys(Ahx_Ahx_Palm); 11 (D)Lys; C-term NH2
For B7, in assay [1], the FPN EC50 came to 19.3 nM. As for Isovaleryl-DTHFPCIK([γGlu-Palmitoyl])FEPR [Compd. ID 219], in assay [1], the FPN EC50 turned out to be 12.6 nM.

B8: Seq. No. 338 (peptide)
peptide: DTHXPCIKFKXC
modifications: N-term isovaleric acid; 4 Dpa; 8 (D)Lys; 10 Lys(PEG12 Palm); 11 bhLys; C-term NH2
In turn, B8 yielded an IC50: FPN internalisation in assay [1] of 20.4 nM. As to Isovaleryl-DTHFPCIK(Ac)FK([PEG12-Palmitoyl])PK(Ac)SK(Ac)[Sar]CK-NH2 (disulfide 6-16 (inferred)) [Compd. ID 214], the FPN EC50 in assay [1] was found to be 7.19 nM.

B9: Compd. ID 45 (peptide)
peptide: DTHXPCIKXKKC
modifications: N-term isovaleric acid; 4 Dpa; 8 (D)Lys; 9 bhPhe; 10 Lys(2Peg11′_KKKGS_Palm); 11 (D)Lys; C-term NH2
In turn, B9 gave an FPN EC50 in assay [1] of 24.5 nM.

B10: Compd. ID 253 (peptide)
peptide: DTHXPCIKXKKC
modifications: N-term isovaleric acid; 4 Dpa; 8 (D)Lys(PEG12_OMe); 9 bhPhe; 10 Lys(1PEG2_1PEG2_IsoGlu_C18_Diacid); 11 (D)Lys(PEG12_OMe); C-term NH2
In the case of B10, the FPN EC50 in assay [1] was > 3000 nM.

In assay [1], Isovaleryl-DTH[Dip]PCIK([Ahx-Palmitoyl])[2Pal]C-NH2 (disulfide 6-10 (inferred)) [Seq. No. 320] had an IC50: FPN internalisation of 9.72 nM.

B11: Compd. ID 6 (peptide)
peptide: DTHXPCIKXKC
modifications: N-term isovaleric acid; 4 Dpa; 8 Lys[isoGlu-Palm]; 9 bhPhe; 10 (D)Lys; C-term NH2
Regarding B11, the FPN EC50 in assay [1] came to 6.16 nM. In assay [1], Isovaleryl-DTH[Dip]PCI[β3hF]K([PEG12-Palmitoyl])[dK]C-NH2 (disulfide 6-11 (inferred)) [Seq. No. 330] registered an IC50: FPN internalisation of 6.93 nM.

B12: Compd. ID 43 (peptide)
peptide: DTHXPCIKXKKC
modifications: N-term isovaleric acid; 4 Dpa; 8 (D)Lys; 9 bhPhe; 10 Lys(1Peg2_1Peg2_Ahx_C18_Diacid); 11 (D)Lys; C-term NH2
On to B12, for which, in assay [1], the FPN EC50 came out at 283 nM. The same measure, in the same setting: then Isovaleryl-DTHFPC[NMeL]K([γGlu-Palmitoyl])FEPRSKGCK-NH2 (disulfide 6-16 (inferred)) [Compd. ID 244], with 9.59 nM.

In turn, DTHXPCIKFKC (N-term isovaleric acid; 4 Dpa; 8 (D)Lys; 10 Lys(PEG12_Palm); C-term NH2) [Seq. No. 341] displayed an IC50: FPN internalisation in assay [1] of 22 nM.

B13: Seq. No. 317 (peptide)
peptide 1: Isovaleryl-DTHFPCIK([γGlu-Palmitoyl])FEPR
peptide 2: SKGCK-NH2
modifications: disulfide I:6-II:4
For the molecule B13, the IC50: FPN internalisation in assay [1] is 13.7 nM.

B14: Compd. ID 44 (peptide)
peptide: DTHXPCIKXKKC
modifications: N-term isovaleric acid; 4 Dpa; 8 (D)Lys; 9 bhPhe; 10 Lys(2Peg11′_KKK_Palm); 11 (D)Lys; C-term NH2
For B14, the FPN EC50 in assay [1] amounted to 37.9 nM.

For Isovaleryl-DTHFPCIK([γGlu-Palmitoyl])FEPRSKGC (disulfide 6-16 (inferred)) [Compd. ID 218], in assay [1], the FPN EC50 was found to be 15.6 nM.

Take DTHXPCIKXKKC (N-term isovaleric acid; 4 Dpa; 8 (D)Lys; 9 bhPhe; 11 (D)Lys; C-term NH2) [Seq. No. 327]: the IC50: FPN internalisation in assay [1] worked out at 142 nM. In the case of Isovaleryl-DTH[Dip]PCI[Dap]([Dap-Palmitoyl])[β3hF]C-NH2 (disulfide 6-10 (inferred)) [Compd. ID 1], the “FPN EC50” value in assay [2] was found to be 2.54 nM.

B15: Compd. ID 203 (peptide)
peptide: DTHFPCIKXKKC
modifications: not fully specified; N-term isovaleric acid; 4 MePhe; 8 (D)Lys; 9 bhPhe; 10 Lys(Ahx_Palm); 11 (D)Lys; C-term NH2
In assay [1], B15 returned an FPN EC50 of 28 nM.

For Isovaleryl-DTH[Dip]PCI[βAla][β3hF][dK]C-NH2 (disulfide 6-11 (inferred)) [Seq. No. 323], the IC50: FPN internalisation in assay [1] was found to be 10.6 nM. Still for that read-out and setting: then Isovaleryl-DTH[Dip]PCI[βAla][β3hF]K([PEG12-Palmitoyl])[dK]C-NH2 (disulfide 6-12 (inferred)) [Seq. No. 333], with 7.16 nM.

As for DTHXPCIKXKRC (N-term isovaleric acid; 4 Dpa; 8 (D)Lys; 9 bhPhe; 10 Lys(Ahx-Palm); C-term NH2) [Compd. ID 2], the FPN EC50 in assay [1] worked out at 11.8 nM.

The molecule Isovaleryl-DTH[Dip]PCII[β3hF]K([PEG12-Palmitoyl])[dK]C-NH2 (disulfide 6-12 (inferred)) [Seq. No. 331] gave an IC50: FPN internalisation in assay [1] of 24 nM. Same read-out and setting: the figure for DTHXPCIKXKC (N-term isovaleric acid; 4 Dpa; 8 (D)Lys; 9 bhPhe; 10 Lys(Ac); C-term NH2) [Seq. No. 326] is 95.7 nM.

For the molecule Isovaleryl-DTHFPCLK([γGlu-Palmitoyl])FEPRSKGCK-NH2 (disulfide 6-16 (inferred)) [Compd. ID 216], in assay [1], the FPN EC50 was 16.6 nM.

B16: Compd. ID 9 (peptide)
peptide: DTHXPCIKXKC
modifications: N-term isovaleric acid; 4 Dpa; 8 Lys[1Peg2-1Peg2-isoGlu-Behenic_Acid]; 9 bhPhe; 10 (D)Lys; C-term NH2
As for B16, the FPN EC50 in assay [1] turned out to be 18.4 nM.

With Isovaleryl-DTH[Dip]PC[NMeL][dK][β3hF]K([Ahx-Palmitoyl])[dK]C-NH2 (disulfide 6-12 (inferred); not fully specified) [Compd. ID 201], the FPN EC50 in assay [1] was found to be 12.5 nM.

B17: Compd. ID 5 (peptide)
peptide: DTHXPCIKXKC
modifications: N-term isovaleric acid; 4 Dpa; 8 Lys[Ahx-isoGlu-Palm]; 9 bhPhe; 10 (D)Lys; C-term NH2
B17 yielded an FPN EC50 in assay [1] of 0.75 nM. With DTHXPCIKFKXC (N-term isovaleric acid; 4 Dpa; 8 (D)Lys; 10 Lys(PEG12_Palm); 11 Orn; C-term NH2) [Seq. No. 340], the IC50: FPN internalisation in assay [1] was 26.9 nM.

B18: Compd. ID 40 (peptide)
peptide: DTHXPCIKXKKC
modifications: N-term isovaleric acid; 4 Dpa; 8 (D)Lys; 9 bhPhe; 10 Lys(Ahx_Ahx_Ahx_Palm); 11 (D)Lys; C-term NH2
In turn, B18 had an FPN EC50 in assay [1] of 18.5 nM.
